According to US20220040304A1, “A COMPOSITION FOR CANCER CELL DEATH AND ITS USE” (Industry-University Cooperation Foundation Hanyang …, priority 2018, published 2022):

B1: KR: first protein KillerRed, ROS-generating protein (superoxide), expressed from pRSET-KillerRed, 31 kDa (protein)
chain: MRGSHHHHHHGMASMTGGQQMGRDLYDDDDKDPMLCCMRRTKQVEKNDEDQKISEGGPALFQSDMTFKIFIDGEVNGQKFTIVADGSSKFPHGDFNVHAVCETGKLPMSWKPICHLIQYGEPFFARYPDGISHFAQECFPEGLSIDRTVRFENDGTMTSHHTYELDDTCVVSRITVNCDGFQPDGPIMRDQLVDILPNETHMFPHGPNAVRQLAFIGFTTADGGLMMGHFDSKMTFNGSRAIEIPGPHFVTIITKQMRDTSDKRDHVCQREVAYAHSVPRITSAIGSDED
modifications: pRSET-KillerRed
notes: first protein KillerRed, ROS-generating protein (superoxide), expressed from pRSET-KillerRed, 31 kDa
B2: RLuc8.6-KR: fusion protein of RLuc8.6 and KillerRed without lead peptide, 69 kDa (protein)
chain: MRGSHHHHHHGMASMTGGQQMGRDLYDDDDKDPMASKVYDPEQRKRMITGPQWWARCKQMNVLDSFINYYDSEKHAENAVIFLHGNATSSYLWRHVVPHIEPVARCIIPDLIGMGKSGKSGNGSYRLLDHYKYLTAWFELLNLPKKIIFVGHDWGSALAFHYAYEHQDRIKAIVHMESVVDVIESWMGWPDIEEELALIKSEEGEKMVLENNFFVETLLPSKIMRKLEPEEFAAYLEPFKEKGEVRRPTLSWPREIPLVKGGKPDVVQIVRNYNAYLRASDDLPKLFIESDPGFFYNAIVEGAKKFPNTEFVKVKGLHFLQEDAPDEMGKYIKSFVERVLKNEQEFGGGMLCCMRRTKQVEKNDEDQKISEGGPALFQSDMTFKIFIDGEVNGQKFTIVADGSSKFPHGDFNVHAVCETGKLPMSWKPICHLIQYGEPFFARYPDGISHFAQECFPEGLSIDRTVRFENDGTMTSHHTYELDDTCVVSRITVNCDGFQPDGPIMRDQLVDILPNETHMFPHGPNAVRQLAFIGFTTADGGLMMGHFDSKMTFNGSRAIEIPGPHFVTIITKQMRDTSDKRDHVCQREVAYAHSVPRITSAIGSDED
modifications: pRSET-RLuc8.6-KillerRed
B3: RLuc8.6-KR-LP: fusion protein of RLuc8.6, KillerRed and lead peptide WLEAAYQRFL, 71 kDa (protein)
chain: MRGSHHHHHHGMASMTGGQQMGRDLYDDDDKDPMASKVYDPEQRKRMITGPQWWARCKQMNVLDSFINYYDSEKHAENAVIFLHGNATSSYLWRHVVPHIEPVARCIIPDLIGMGKSGKSGNGSYRLLDHYKYLTAWFELLNLPKKIIFVGHDWGSALAFHYAYEHQDRIKAIVHMESVVDVIESWMGWPDIEEELALIKSEEGEKMVLENNFFVETLLPSKIMRKLEPEEFAAYLEPFKEKGEVRRPTLSWPREIPLVKGGKPDVVQIVRNYNAYLRASDDLPKLFIESDPGFFYNAIVEGAKKFPNTEFVKVKGLHFLQEDAPDEMGKYIKSFVERVLKNEQEFGGGMLCCMRRTKQVEKNDEDQKISEGGPALFQSDMTFKIFIDGEVNGQKFTIVADGSSKFPHGDFNVHAVCETGKLPMSWKPICHLIQYGEPFFARYPDGISHFAQECFPEGLSIDRTVRFENDGTMTSHHTYELDDTCVVSRITVNCDGFQPDGPIMRDQLVDILPNETHMFPHGPNAVRQLAFIGFTTADGGLMMGHFDSKMTFNGSRAIEIPGPHFVTIITKQMRDTSDKRDHVCQREVAYAHSVPRITSAIGSDEDGGGWLEAAYQRFL
modifications: pRSET-RLuc8.6-KillerRed-Lead peptide

Tests used:
[1] = test system: superoxide; assay: ROS generation: superoxide measured by decrease of DHE fluorescence; assay type: biochemical
Method: A ROS-generating effect of the RLuc8.6-KR protein was confirmed using 100 μL of buffer (50 mM HEPES-KOH, 24° C., pH 7.4) containing RLuc8.6-KR protein (final concentration: 10 μM), dihydroethidium (DHE, Sigma Aldrich, USA; final concentration of 100 μM) whose fluorescence intensity decreases in the presence of superoxide and a Co-h substrate solution. The rate of decrease in fluorescence intensity was measured at the excitation wavelength of 370 nm and the emission wavelength of 420 nm of DHE using a plate reader.
A ROS-generating effect of RLuc8.6-KR protein was measured using RLuc8.6-KR protein (final concentration: 10 μM) and DHE (final concentration: 100 μM) whose fluorescence intensity decreases in the presence of superoxide, and
Here, the active oxygen generation rate of each protein was measured using 100 μL of buffer (50 mM HEPES-KOH, 24° C., pH 7.4) containing FMN (final concentration: 150 μM) and a Co-h substrate solution (final concentration: 150 μM).
The rate of decrease in fluorescence intensity was measured at the excitation wavelength of 370 nm and the emission wavelength of 420 nm of DHE using a plate reader. In addition, the rate of decrease in fluorescence intensity was measured at the excitation wavelength of 380 nm and the emission wavelength of 430 nm of ADPA using a plate reader.
(§1) A ROS generation rate was measured using 100 μL of buffer (50 mM HEPES-KOH, 24° C., pH 7.4) containing the KR protein, RLuc8.6-KR protein (final concentration: 10 μM) and DHE (final concentration: 100 μM) whose fluorescence intensity decreases in the presence of superoxide.
A ROS generation rate was measured using 100 μL of buffer (50 mM HEPES-KOH, 24° C., pH 7.4) containing MS, RLuc8-MS (final concentration: 10 μM), DHE (final concentration: 100 μM) whose fluorescence intensity decreases in the presence of superoxide and FMN (final concentration: 150 μM).
After irradiation with light (referred to as +LED Light) at 10 mW/cm^2 for 30 minutes, the rate of decrease in fluorescence intensity was measured at the excitation wavelength of 370 nm and the emission wavelength of 420 nm of DHE using a plate reader.
as §1, with “μM),” for “μM) and”, “superoxide and a Co-h substrate solution (final concentration: 150 μM).” for “superoxide.”
A ROS generation rate was measured using 100 μL of buffer (50 mM HEPES-KOH, 24° C., pH 7.4) containing MS, RLuc8-MS (final concentration: 10 μM), DHE (final concentration: 100 μM) whose fluorescence intensity decreases in the presence of superoxide, FMN (final concentration: 150 μM) and a Co-h substrate solution (final concentration: 150 μM). The rate of decreasing fluorescence intensity was measured at an excitation wavelength of 370 nm and an emission wavelength of 420 nm of DHE using a plate reader.
A ROS generation rate was measured by reaction of 100 μL of buffer (50 mM HEPES-KOH, 24° C., pH 7.4) containing RLuc8.6-KR protein (final concentration: 10 μM), DHE (final concentration: 100 μM) whose fluorescence intensity decreases in the presence of superoxide, ROS scavenger (SOD (superoxide scavenger, final concentration 800U/ml), sodium azide (Singlet oxygen scavenger; final concentration: 100 mM) and D-mannitol (hydroxyl radical scavenger; final concentration: 100 mM), respectively) for 30 minutes. […]

[2] = test system: MDA-MB-231; assay: Cell death with Co-h substrate by cell type (SYTOX Green or EthD-1/DAPI); assay type: cell-based, human; settings: MDA-MB-231, protein 10 μM, Co-h 150 μM for 5 minutes
Method: (§2) The cells were seeded at 5×10^5 cells/mL in 96-well plates (SPL Cell Culture Plate, 96 well (SPL, Cat #30096)), and cultured at 37° C. for 24 hours (overnight). After the culture for 24 hours, the cells were washed with FBS & phenol red-free media, and 100 μL of FBS & phenol red-free media containing a purified protein (final concentration: 10 μM) was added, followed by reaction at 37° C. for 24 hours.
(§3) Subsequently, the cells were washed with FBS & phenol red-free media, and 100 μL of FBS & phenol red-free media was added. 100 μL of FBS & Phenol red-free media (RPMI) containing a Co-h substrate solution (final concentration: 150 μM) was added, followed by reaction at 37° C. for 5 minutes.
(§4) After the reaction, 50 μL of SYTOX Green (final concentration: 261 nM) or 90 μL of ethidium homodimer (EthD-1) (final concentration 1×), which stains DNA of dead cells, was added, followed by reaction at 37° C. for 30 minutes. 10 μL of DAPI staining DNA of live cells was added, followed by reaction for 5 minutes. Cell death was confirmed by observing KillerRed, SYTOX Green, MiniSOG, EthD-1 and DAPI fluorescence using a confocal microscope.

[3] = test system: MCF-7; assay: as above; assay type: cell-based, human; settings: MCF-7, protein 10 μM, Co-h 150 μM for 5 minutes
Method: as §2, §3, §4

Molecule | superoxide generation rate after light irradiation ([1]; 10 mW/cm^2, 30 minutes, no substrate, protein 10 μM, DHE) | superoxide generation rate by Co-h reaction after ROS scavenger treatment ([1]; RLuc8.6-KR 10 μM, Co-h 150 μM 30 minutes, SOD 800 U/ml, sodium azide 100 mM or D-mannitol 100 mM) | cell death with Co-h substrate [2] | cell death with Co-h substrate [3] | superoxide generation rate after Co-h substrate reaction ([1]; Co-h 150 μM, 30-min reaction, without light irradiation, protein 10 μM, DHE) | reaction time with Co-h until which the superoxide generation rate increased, then constantly maintained ([1]; protein 10 μM, Co-h 150 μM, DHE) | Co-h concentration until which the superoxide generation rate increased, then constantly maintained ([1]; protein 10 μM, DHE 100 μM, substrate reaction time 5 minutes)
B1 | higher superoxide generation rate | lowest when SOD was treated | – | – | – | – | –
B2 | – | – | none of the six breast cancer cell lines were killed | none of the six breast cancer cell lines were killed | highest superoxide generation rate | 30 min | 150 µM
B3 | – | – | killed them | killed them | – | – | –
